In article PMC11371640, “Structural deficits in key domains of Shank2 lead to alterations in postsynaptic nanoclusters and to a neurodevelopmental disorder in humans” (Molecular Psychiatry, 2022):
Substitutions are numbered along the chain they refer to. Numbers in names are those of the source. Blank lines part the entries; values can stand above or below the binder they belong to.

Experiments:
[1] = biological target: T1, GST fusion protein of the GKAP C-terminus (50 C-terminal residues), P97836-4; test: GST pulldown, Western blot quantification; details: chain shown with the change; 293T cell lysates; four independent experiments; parent: est. 3.8; read off a plot
T1 chain: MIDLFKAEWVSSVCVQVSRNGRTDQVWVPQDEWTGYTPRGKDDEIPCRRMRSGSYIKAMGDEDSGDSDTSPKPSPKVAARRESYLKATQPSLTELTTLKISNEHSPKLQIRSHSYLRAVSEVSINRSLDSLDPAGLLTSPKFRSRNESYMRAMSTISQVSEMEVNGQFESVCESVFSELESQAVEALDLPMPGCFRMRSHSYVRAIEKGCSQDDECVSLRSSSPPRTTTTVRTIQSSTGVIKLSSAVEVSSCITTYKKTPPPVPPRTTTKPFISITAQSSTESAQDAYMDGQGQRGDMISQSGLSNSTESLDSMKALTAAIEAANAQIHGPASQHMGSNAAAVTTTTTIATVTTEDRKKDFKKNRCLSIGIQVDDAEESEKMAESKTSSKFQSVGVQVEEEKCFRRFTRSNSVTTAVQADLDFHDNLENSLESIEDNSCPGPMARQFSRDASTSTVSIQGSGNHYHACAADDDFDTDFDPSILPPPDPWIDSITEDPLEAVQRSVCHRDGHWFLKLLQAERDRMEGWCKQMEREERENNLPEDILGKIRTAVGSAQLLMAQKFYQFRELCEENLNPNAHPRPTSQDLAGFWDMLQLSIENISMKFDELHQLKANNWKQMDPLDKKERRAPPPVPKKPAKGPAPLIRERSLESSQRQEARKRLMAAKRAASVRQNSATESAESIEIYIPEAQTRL

[2] = biological target: T2, His6-SUMO-tagged SH3 to PDZ domains of Shank2 (R520-D727), WT ( (human or rat cDNA cloned), UniProt Q9UPX8-3 520-727); test: ITC; peptide in the syringe (200 µM; 1 mM for G643R), His6-SUMO SH3-PDZ protein in the cell (20-30 µM); 25 °C; 50 mM Tris-HCl pH 8.0, 100 mM NaCl, 1 mM EDTA; 1:1 binding model; details: both partners purified
T2 construct: Shank2, SH3 to PDZ domains, residues R520-D727; numbers count on: NM_012309.5 (isoform of 1849 residues); Cloned into pET-SUMO; also called His6-SUMO-SH3-PDZ fusion; Shank2 WT; source: E. coli BL21(DE3), purified (Ni-NTA agarose, G-25); not shown: His6, N-terminal, kept; SUMO, N-terminal, kept
T2 sequence (looked up): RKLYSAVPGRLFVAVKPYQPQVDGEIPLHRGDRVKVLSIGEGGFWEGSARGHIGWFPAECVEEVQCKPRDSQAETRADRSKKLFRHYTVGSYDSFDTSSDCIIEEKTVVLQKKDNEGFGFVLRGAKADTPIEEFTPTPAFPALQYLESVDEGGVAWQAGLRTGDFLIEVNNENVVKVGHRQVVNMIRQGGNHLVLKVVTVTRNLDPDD

[3] = biological target: the molecule itself; test: turbidity (absorbance at 350 nm); His6-SUMO-tagged SAM domains, 10 µM, mixed with Zn2+ in 96-well plates (200 µl); absorbance after 10 min or every 10 s with 10 µM Zn2+; 0.5 M NaCl, 20 mM Tris/HCl pH 7.5
[4] = biological target: the molecule itself; test: dynamic light scattering; isolated SAM domains (tag cleaved), 50 µM protein and 50 µM Zn2+, 1 h at room temperature, filtered 0.22 µm
[5] = biological target: the molecule itself; test: crystal structure; Shank2-SAM WT (0.1 M Bis-Tris pH 5.5, 0.3 M Mg-formate) and L1800W (0.1 M Bis-Tris pH 5.5, 26% PEG 2000MME); sitting drop vapor diffusion; contacts between symmetry-related SAM domains in the crystal; no Zn2+ added

response (Precipitate / Input) [1]: 0.3
B1: mCherry-tagged human Shank2a (WT), Q9UPX8-3 G643R (protein)
chain: MPRSPTSSEDEMAQSFSDYSVGSESDSSKEETIYDTIRATAEKPGGARTEESQGNTLVIRVVIHDLQQTKCIRFNPDATVWVAKQRILCTLTQSLKDVLNYGLFQPASNGRDGKFLDEERLLREYPQPVGEGVPSLEFRYKKRVYKQASLDEKQLAKLHTKTNLKKCMDHIQHRLVEKITKMLDRGLDPNFHDPETGETPLTLAAQLDDSVEVIKALKNGGAHLDFRAKDGMTALHKAARARNQVALKTLLELGASPDYKDSYGLTPLYHTAIVGGDPYCCELLLHEHATVCCKDENGWHEIHQACRYGHVQHLEHLLFYGADMSAQNASGNTALHICALYNQDSCARVLLFRGGNKELKNYNSQTPFQVAIIAGNFELAEYIKNHKETDIVPFREAPAYSNRRRRPPNTLAAPRVLLRSNSDNNLNASAPDWAVCSTATSHRSLSPQLLQQMPSKPEGAAKTIGSYVPGPRSRSPSLNRLGGAGEDGKRPQPLWHVGSPFALGANKDSLSAFEYPGPKRKLYSAVPGRLFVAVKPYQPQVDGEIPLHRGDRVKVLSIGEGGFWEGSARGHIGWFPAECVEEVQCKPRDSQAETRADRSKKLFRHYTVGSYDSFDTSSDCIIEEKTVVLQKKDNEGFGFVLRRAKADTPIEEFTPTPAFPALQYLESVDEGGVAWQAGLRTGDFLIEVNNENVVKVGHRQVVNMIRQGGNHLVLKVVTVTRNLDPDDTARKKAPPPPKRAPTTALTLRSKSMTSELEELVDKASVRKKKDKPEEIVPASKPSRAAENMAVEPRVATIKQRPSSRCFPAGSDMNSVYERQGIAVMTPTVPGSPKAPFLGIPRGTMRRQKSIDSRIFLSGITEEERQFLAPPMLKFTRSLSMPDTSEDIPPPPQSVPPSPPPPSPTTYNCPKSPTPRVYGTIKPAFNQNSAAKVSPATRSDTVATMMREKGMYFRRELDRYSLDSEDLYSRNAGPQANFRNKRGQMPENPYSEVGKIASKAVYVPAKPARRKGMLVKQSNVEDSPEKTCSIPIPTIIVKEPSTSSSGKSSQGSSMEIDPQAPEPPSQLRPDESLTVSSPFAAAIAGAVRDREKRLEARRNSPAFLSTDLGDEDVGLGPPAPRTRPSMFPEEGDFADEDSAEQLSSPMPSATPREPENHFVGGAEASAPGEAGRPLNSTSKAQGPESSPAVPSASSGTAGPGNYVHPLTGRLLDPSSPLALALSARDRAMKESQQGPKGEAPKADLNKPLYIDTKMRPSLDAGFPTVTRQNTRGPLRRQETENKYETDLGRDRKGDDKKNMLIDIMDTSQQKSAGLLMVHTVDATKLDNALQEEDEKAEVEMKPDSSPSEVPEGVSETEGALQISAAPEPTTVPGRTIVAVGSMEEAVILPFRIPPPPLASVDLDEDFIFTEPLPPPLEFANSFDIPDDRAASVPALSDLVKQKKSDTPQSPSLNSSQPTNSADSKKPASLSNCLPASFLPPPESFDAVADSGIEEVDSRSSSDHHLETTSTISTVSSISTLSSEGGENVDTCTVYADGQAFMVDKPPVPPKPKMKPIIHKSNALYQDALVEEDVDSFVIPPPAPPPPPGSAQPGMAKVLQPRTSKLWGDVTEIKSPILSGPKANVISELNSILQQMNREKLAKPGEGLDSPMGAKSASLAPRSPEIMSTISGTRSTTVTFTVRPGTSQPITLQSRPPDYESRTSGTRRAPSPVVSPTEMNKETLPAPLSAATASPSPALSDVFSLPSQPPSGDLFGLNPAGRSRSPSPSILQQPISNKPFTTKPVHLWTKPDVADWLESLNLGEHKEAFMDNEIDGSHLPNLQKEDLIDLGVTRVGHRMNIERALKQLLDR

fold reduction of affinity against the GKAP peptide [2]: ~40 fold
B2: synthetic peptide of the C-terminal PDZ ligand of CIRL1/latrophilin (peptide)
peptide: PGPDGDGQMQLVTSL
notes: CIRL1/latrophilin, C-terminal PDZ ligand (15 residues), free N- and C-terminus; also called CIRL1 peptide; source: synthetic peptide (Genscript)

B3: His6-SUMO-tagged Shank2-SAM domain (T1780-R1849), WT (domain or fragment, UniProt Q9UPX8-3 1780-1849, looked up)
chain: TKPVHLWTKPDVADWLESLNLGEHKEAFMDNEIDGSHLPNLQKEDLIDLGVTRVGHRMNIERALKQLLDR
notes: Shank2 SAM domain, residues T1780-R1849; numbers count on: NM_012309.5 (isoform of 1849 residues); also called SUMO-SAM fusion; WT SAM domain; source: E. coli BL21(DE3), purified (Ni-NTA agarose, G-25); not shown: His6, N-terminal, kept; SUMO, N-terminal, kept
binding result [3]: binds

B4: His6-SUMO-tagged Shank2-SAM domain (T1780-R1849), L1800W (domain or fragment, UniProt Q9UPX8-3 1780-1849, looked up)
chain: B3 chain with L21W
notes: Shank2 SAM domain, residues T1780-R1849, patient variant L1800W; numbers count on: NM_012309.5 (isoform of 1849 residues); also called L1800W mutant; p.L1800W SAM domain; source: E. coli BL21(DE3), purified (Ni-NTA agarose, G-25); not shown: His6, N-terminal, kept; SUMO, N-terminal, kept
binding result [3]: binds

B5: Shank2-SAM domain (T1780-R1849), WT, His-SUMO tag cleaved off (domain or fragment, UniProt Q9UPX8-3 1780-1849, looked up)
chain: B3 chain
notes: Shank2 SAM domain, residues T1780-R1849; numbers count on: NM_012309.5 (isoform of 1849 residues); also called SAM-WT; Shank2-SAM WT; source: E. coli BL21(DE3), purified (Ni-NTA agarose), tag cleaved with SUMO protease and removed on Ni-NTA; not shown: His6, N-terminal, cleaved; SUMO, N-terminal, cleaved
binding result [4]: binds

B6: Shank2-SAM domain (T1780-R1849), L1800W, His-SUMO tag cleaved off (domain or fragment, UniProt Q9UPX8-3 1780-1849, looked up)
chain: B3 chain with L21W
notes: Shank2 SAM domain, residues T1780-R1849, patient variant L1800W; numbers count on: NM_012309.5 (isoform of 1849 residues); also called SAM-L1800W; L1800W mutant SAM domain; source: E. coli BL21(DE3), purified (Ni-NTA agarose), tag cleaved with SUMO protease and removed on Ni-NTA; not shown: His6, N-terminal, cleaved; SUMO, N-terminal, cleaved
binding result [5]: binds
